US20040077572, “Transposon system and methods of use” (Regents of the University of Minnesota, published 2004)

Tests used:
Conditions in all cases: tags: C-terminal His6
[1] = target: T1, N123 (DNA-binding domain of Sleeping Beauty transposase) (synthetic (reconstructed salmonid)); assay: EMSA; binding abolished
T1 chain: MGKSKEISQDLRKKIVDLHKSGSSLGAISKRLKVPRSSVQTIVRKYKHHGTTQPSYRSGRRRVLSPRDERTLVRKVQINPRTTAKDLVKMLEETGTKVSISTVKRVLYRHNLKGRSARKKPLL
Source text: (§1) DNA fragments with one to three DRs were obtained by digestion of the appropriate transposon with HindIII and SacI. To determine the core sequence for SB binding, DNA fragments with mutations in the outer or inner DR were made by PCR followed by enzyme digestion. DNA fragments were end-labeled with [α³²P]-dCTP. Nucleoprotein complexes were formed in a buffer as described by Ivics et al., Cell, 1997;91:501-510. Reactions contained 100 picogram (pg) DNA probes, 1 microgram (μg) poly[dI:dC], and 1 microliter (μl) N123 in a total volume of 20 μl. After a 60 minutes incubation at 30° C., […] of loading dye containing 50% glycerol and bromophenol blue were added and the samples were loaded onto 4%-6% polyacrylamide gels, which were run for 2-3 hours at 120 volts. 4% gels were used for EMSA assays with triple-DR probes while 6% gels were used with double-DR probes. Competitor concentrations were as described in Ivics et al., Cell, 1997;91:501-510. Dried gels were exposed to the phosphor for 6-9 hours and imaged on a Storm 840 Imager (Molecular Dynamics).

[2] = target: T1, N123 (DNA-binding domain of Sleeping …); assay: EMSA; still binds
Source text: as §1

[3] = target: T1, N123 (DNA-binding domain of Sleeping …); assay: competition; binds more tightly than Lo
Source text: as §1
(§2) The initial step of SB transposition involves the specific binding of transposase to both ITRs of SB transposon. Two DRs in each ITR are required because deletion of one or the both severely reduces transposition (Izsvák et al., J. Mol. Biol., 2000;302:93-102). […]

[4] = target: T1, N123 (DNA-binding domain of Sleeping …); assay: competition; weaker competitor than Li
Source text: as §1, §2

[5] = target: T1, N123 (DNA-binding domain of Sleeping …); assay: EMSA; binding not affected
Source text: as §1

B1: Lo(S10-12) (dsDNA)
DNA 1: TACAGTTGAAGAACGAAGTTTACATACACTTAAG
DNA 2: CTTAAGTGTATGTAAACTTCGTTCTTCAACTGTA
Does B1 bind [1]?
Result: no binding

B2: Lo(delta8-11) (dsDNA)
DNA 1: TACAGTTGAGGAAGTTTACATACACTTAAG
DNA 2: CTTAAGTGTATGTAAACTTCCTCAACTGTA
Does B2 bind [1]?
Result: no binding

B3: Lo(S27-29) (dsDNA)
DNA 1: TACAGTTGAAGTCGGAAGTTTACATACATGGAAG
DNA 2: CTTCCATGTATGTAAACTTCCGACTTCAACTGTA
Does B3 bind [1]?
Result: no binding

B4: Li/Lo(H) (dsDNA)
DNA 1: TCCAGTGGGTCAGAAGTTTACATACACTTAAG
DNA 2: CTTAAGTGTATGTAAACTTCTGACCCACTGGA
modifications: [none]
Does B4 bind [2]?
Result: binds

B5: Li (dsDNA)
DNA 1: TCCAGTGGGTCAGAAGTTTACATACACTAAGT
DNA 2: ACTTAGTGTATGTAAACTTCTGACCCACTGGA
Does B5 bind [3]?
Result: binds

B6: Lo (dsDNA)
DNA 1: TACAGTTGAAGTCGGAAGTTTACATACACTTAAG
DNA 2: CTTAAGTGTATGTAAACTTCCGACTTCAACTGTA
Does B6 bind [4]?
Result: binds

B7: Lo(S3) (dsDNA)
DNA 1: TACAATTGAAGTCGGAAGTTTACATACACTTAAG
DNA 2: CTTAAGTGTATGTAAACTTCCGACTTCAATTGTA
Does B7 bind [5]?
Result: binds

B8: Lo(S1,3) (dsDNA)
DNA 1: TAAAATTGAAGTCGGAAGTTTACATACACTTAAG
DNA 2: CTTAAGTGTATGTAAACTTCCGACTTCAATTTTA
Does B8 bind [5]?
Result: binds

B9: Lo(S4-6) (dsDNA)
DNA 1: TACAGCCCAAGTCGGAAGTTTACATACACTTAAG
DNA 2: CTTAAGTGTATGTAAACTTCCGACTTGGGCTGTA
Does B9 bind [5]?
Result: binds

B10: Lo(S7-9) (dsDNA)
DNA 1: TACAGTTGCCCTCGGAAGTTTACATACACTTAAG
DNA 2: CTTAAGTGTATGTAAACTTCCGAGGGCAACTGTA
Does B10 bind [5]?
Result: binds

B11: Lo(S28-30) (dsDNA)
DNA 1: TACAGTTGAAGTCGGAAGTTTACATACACGGGAG
DNA 2: CTCCCGTGTATGTAAACTTCCGACTTCAACTGTA
Does B11 bind [5]?
Result: binds
